Each block holds one compound with its values, some of them ahead of it. Non-standard residues stand in square brackets, D forms with d. No end group written: not given here. hArg = N=C(N)NCCCC[C@H](N)C(=O)O; Orn = NCCC[C@H](N)C(=O)O
What was measured:
human GHRH receptor = biological target: T1, human GHRH receptor (Homo sapiens, UniProt Q02643); assay: Hit Hunter (DiscoveRx) cAMP agonist assay in cells expressing GHRH receptor; type: cell-based; settings: for potency in words: Table 2 experiment, compared to native peptide; for in vitro biological activity in words: longer PEG chains at the 9th position
T1 sequence (Q02643 23-423): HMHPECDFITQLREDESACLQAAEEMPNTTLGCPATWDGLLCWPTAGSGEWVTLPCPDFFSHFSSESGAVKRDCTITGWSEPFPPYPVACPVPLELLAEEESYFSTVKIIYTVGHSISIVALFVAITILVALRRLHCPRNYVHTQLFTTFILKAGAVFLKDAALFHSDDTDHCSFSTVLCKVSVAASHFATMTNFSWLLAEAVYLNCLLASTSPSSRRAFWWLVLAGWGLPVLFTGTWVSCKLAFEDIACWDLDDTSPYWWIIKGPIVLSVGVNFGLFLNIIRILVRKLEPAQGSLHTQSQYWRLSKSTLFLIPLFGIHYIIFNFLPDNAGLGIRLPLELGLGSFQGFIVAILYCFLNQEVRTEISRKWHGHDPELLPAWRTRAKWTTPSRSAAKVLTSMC
Description: For agonist determination, cells were incubated with sample to induce response. Media was aspirated from cells and replaced with 15 μL 2:1 HBSS/10 mM Hepes:cAMP XS+ Ab reagent. […] Vehicle concentration was 1%. […] Microplates were read following signal generation with a PerkinElmer Envision™ instrument for chemiluminescent signal detection. Compound activity was analyzed using CBIS data analysis suite (ChemInnovation, CA).

Growth Hormone secretion = assay: GH release kinetics after subcutaneous injection in Sprague-Dawley rats; type: in vivo; settings: female rats, single subcutaneous dose 0.04 mg/kg, FIG. 1; for GH AUC (0-90 min): plasma GH by ELISA
Text: Protocol: Sprague-Dawley rats (female, weighing from 250 to 300 g) were obtained from Charles River Inc. Animals were used according to a protocol of the Animal Care Committee along with the principles of the Guide for the Care and Use of Experimental Animals of the Canadian Council on Animal Care. The animals were maintained on standard laboratory chow under a 12:12 light:dark cycle. They were kept in groups of 4 rats per cage. The animals were anesthetized with isoflurane 2.5%. A mid-section opening was made in the neck to expose the carotid artery. The carotid artery was canulated with polypropylene tubing (PE-50) to allow blood withdrawal. After surgical preparation, rats received a subcutaneous injection of GHRH analog (10-100 μg/kg) dissolved in 20 mM AcONa+5% mannitol at pH 5). Blood samples (400 μL/time point) were collected from 2-4 animals per group. […] Blood was collected into microtainer tubes containing K3EDTA, mixed and immediately centrifuged at 13,000 RPM in a desktop centrifuge for 2 minutes. The plasma was collected and placed into a screw cap Eppendorf™ tube and quickly frozen in liquid nitrogen. The samples were then kept at −80° C. until assayed. Determination of GH levels was performed as described below.
Determination of GH levels in plasma samples: Rat and mouse plasma samples were vortexed carefully and centrifuged at 9,000 RPM for 2 min at 4° C. […] The remainder of the procedure was performed according to the manufacturers instructions, and the data obtained were analyzed using GraphPad Prism™ software. […] Growth hormone levels were determined in timed-aliquots of blood and are depicted in FIG. 1. […]
The N-terminal part of the GHRH peptide is known to be buried in the extracellular loops and transmembrane domains of the GHRH receptor, and thus almost all of the amino acids in the N-terminal domain participate in high affinity binding of the GHRH peptide to the receptor. […] Briefly, peptides (0.04 mg/kg) were subcutaneously injected in female rats and growth hormone levels were determined in timed aliquots of blood drawn from the animals.

Max. response(%) (compared to baseline) (human GHRH receptor; Table 3, independent experiment): 112.97%
Compound: CC[C@H](C)[C@H](NC(=O)[C@H](C)NC(=O)[C@H](CC(=O)O)NC(=O)[C@H](C)NC(=O)[C@@H](N)Cc1ccc(O)cc1)C(=O)N[C@@H](Cc1ccccc1)C(=O)N[C@H](C(=O)N[C@@H](CC(N)=O)C(=O)N[C@@H](CO)C(=O)N[C@@H](Cc1ccc(O)cc1)C(=O)N[C@@H](CCCNC(=N)N)C(=O)N[C@@H](CCCCN)C(=O)N[C@H](C(=O)N[C@@H](CC(C)C)C(=O)NCC(=O)N[C@@H](CCC(N)=O)C(=O)N[C@@H](CC(C)C)C(=O)N[C@@H](CO)C(=O)N[C@@H](C)C(=O)N[C@@H](CCCNC(=N)N)C(=O)N[C@@H](CCCCN)C(=O)N[C@@H](CC(C)C)C(=O)N[C@@H](CC(C)C)C(=O)N[C@@H](CCC(N)=O)C(=O)N[C@@H](CC(=O)O)C(=O)N[C@H](C(=O)N[C@@H](CCSC)C(=O)N[C@@H](CO)C(=O)N[C@@H](CCCNC(=N)N)C(N)=O)[C@@H](C)CC)C(C)C)[C@@H](C)O [GHRH1-29, reference compound]

potency in words (human GHRH receptor): reduced potency
Compound: YaDAIFTASYROVLAQLSC(Peg-2K)ROALQDILSKN-NH2 (Y[dA]DAIFTASYR[Orn]VLAQLSC(PEG 2 kDa)R[Orn]ALQDILSKN-NH2) [Analog 4 (C19), Cys19 conjugated to about 2 kDa PEG]

potency in words (human GHRH receptor): reduced potency
Compound: YaDAIFTASYROVLAC(Peg-2K)LSAROALQDILSKN-NH2 (Y[dA]DAIFTASYR[Orn]VLAC(PEG 2 kDa)LSAR[Orn]ALQDILSKN-NH2) [Analog 9 (C16), Cys16 conjugated to about 2 kDa PEG]

potency in words (human GHRH receptor): reduced potency
Compound: YaDAIFTASYROVLAQLSAROALQDC(Peg-2K)LSKN-NH2 (Y[dA]DAIFTASYR[Orn]VLAQLSAR[Orn]ALQDC(PEG 2 kDa)LSKN-NH2) [Analog 8 (C26), Cys26 conjugated to about 2 kDa PEG]

fold more potent than the 5K and 40K Pegylated GHRH peptides (analogs 15 and 16) (human GHRH receptor; Table 3 experiment): 2-6 fold
fold more potent than the native peptide (human GHRH receptor; Table 3 experiment): ~14 fold
Compound: YaDAIFTAC(Peg-2K)YROVLAQLSAROALQDILS(Har)-NH2 (Y[dA]DAIFTAC(PEG 2 kDa)YR[Orn]VLAQLSAR[Orn]ALQDILS[hArg]-NH2) [Analog 10 (C9), Cys9 conjugated to about 2 kDa PEG, Har29]

Compound: YaDAIFTAC(Peg-2K)YROVLAQLSAROALQDILSKN-NH2 (Y[dA]DAIFTAC(PEG 2 kDa)YR[Orn]VLAQLSAR[Orn]ALQDILSKN-NH2) [Analog 6 (C9), Cys9 conjugated to about 2 kDa PEG]
GH AUC (0-90 min) (Growth Hormone secretion): 29075 ng/ml/90 min

potency in words (human GHRH receptor): reduced potency
Compound: YaDAIFTC(Peg-2K)SYROVLAQLSAROALQDILSKN-NH2 (Y[dA]DAIFTC(PEG 2 kDa)SYR[Orn]VLAQLSAR[Orn]ALQDILSKN-NH2) [Analog 7 (C8), Cys8 conjugated to about 2 kDa PEG]
GH AUC (0-90 min) (Growth Hormone secretion): 15657 ng/ml/90 min

Compound: YaDAIFTASYROVLAQLSAROALQDILC(Peg-2K)KN-NH2 (Y[dA]DAIFTASYR[Orn]VLAQLSAR[Orn]ALQDILC(PEG 2 kDa)KN-NH2) [Analog 1 (C28), GHRH analog with Cys28 conjugated to about 2 kDa PEG]
stimulation of GH secretion in words (Growth Hormone secretion): potently stimulated GH secretion

Compound: YaDAIFTAC(Peg-40K)YROVLAQLSAROALQDILS(Har)-NH2 (Y[dA]DAIFTAC(PEG 40 kDa)YR[Orn]VLAQLSAR[Orn]ALQDILS[hArg]-NH2) [Analog 16 (C9), Cys9 conjugated to about 40 kDa PEG, Har29]
in vitro biological activity in words (human GHRH receptor; Table 3 experiment): without loss of in vitro biological activity

potency in words (human GHRH receptor): reduced potency
Compound: YaDAIFTASYROVLC(Peg-2K)QLSAROALQDILSKN-NH2 (Y[dA]DAIFTASYR[Orn]VLC(PEG 2 kDa)QLSAR[Orn]ALQDILSKN-NH2) [Analog 5 (C15), Cys15 conjugated to about 2 kDa PEG]

Compound: YaDAIFTAC(Peg-5K)YROVLAQLSAROALQDILS(Har)-NH2 (Y[dA]DAIFTACYR[Orn]VLAQLSAR[Orn]ALQDILS[hArg]-NH2; not fully specified (residue 9); printed as YaDAIFTAC(Peg-5K)YROVLAQLSAROALQDILS(Har)-NH2) [Analog 15 (C9), Cys9 conjugated to 5K PEG, Har29]
in vitro biological activity in words (human GHRH receptor; Table 3 experiment): without loss of in vitro biological activity

Reference: patent US10918730B2, “Pegylated bioactive peptides and uses thereof” (GRIFFON PHARMACEUTICALS INC., priority 2016, dated 2021)
